Target: T1, Tag-xPSM (Homo sapiens, UniProt Q04609)
T1 construct: made in house; host or cells: Sf-9 insect cells infected with recombinant baculovirus; protein harvested from the media
Assay: Tag-xPSM phage display selection (agarose/cellulose), sequencing of selected phage
Type: binding
Procedure: 100 μl of S-protein agarose (2× in RPMI 1640+1% Fetal Bovine Serum (FBS) and 100 μl of CBind Resin (10 mg/ml in RPMI 1640+1% FBS) without fusion protein were used to negatively select the original phage display library. 2×10^11 plaque forming units (PFU) of 1.29×10^9 different sequence phage were incubated with each aliquot of resin for 1 hr at 37° C., while rotating. The S-tag agarose was pelleted and supernatant saved as the agarose counter-selected pool. The cellulose resin was transferred onto 200 μl of 9:1 dibutyl phthalate:cyclohexane and the resin pelleted through the organic phase. The aqueous supernatant was saved as the cellulose counter-selected pool. Each counter selected pool was then added to tag-xPSM agarose or cellulose resin and incubated for 1 hr at 37° C., while rotating. The tag-xPSM agarose was pelleted and washed three times in RPMI 1640+1% FBS. The agarose pellet was then saved for phage isolation. The Tag-xPSM cellulose was transferred onto 200 μl of 9:1 dibutyl phthalate:cyclohexane and the resin pelleted through the organic phase. The tube was then snap frozen in liquid nitrogen to isolate the resin pellet. Over 75% of Tag-xPSM remained bound to the cellulose resin through these conditions. The resulting phage-bound tag-xPSM agarose and tag-xPSM cellulose were then resuspended in 200 μl of log phage ER2738 cells and phage allowed to infect 1 hour at room temperature. A small aliquot was taken at this time to quantitate the number of phage bound per round of selection. The remaining PSMA bound phage was then amplified, tittered, and applied to the next round of phage display. There was only one counter-selection round, followed by a total of five positive selection rounds, applying between 10^10 to 10^11 PFU per round. The final round of selection included cross-selections, where selected phage pools from one PSMA background where applied to the other. Individual phage were isolated and sequenced from rounds three through five.
Individual phage plaques were amplified for 5 hours in ER2738 cells at 37° C. Amplified supernatant was incubated 1:1 with PEG/NaCl buffer (20% PEG 8000, 2.5 M NaCl) for 10 minutes at room temperature. Phage were microfuged 10 minutes at 20,000 g, 4° C. The phage pellet was suspended in 100 μl Iodide buffer (10 mM Tris-HCl, pH 8.0, 1 mM EDTA, 4M NaI). Single stranded DNA (ssDNA) was precipitated with 250 μl of 100% ethanol, pelleted, and washed in 70% ethanol. Each ssDNA pellet was suspended in 30 μl 10 mM Tris, pH 7.4. Each phage was sequenced using the Amersham DYE ET mix, by incubating 6 μl ssDNA, 1 μl of 5 μM-96 pill Sequencing Primer ([…]; SEQ ID NO:108), and 8 μl of DYE ET mix in a 96 well PCR plate and amplified by 30 cycles of 95° C. for 20 seconds, 50° C. for 15 seconds, and 60° C. for 1 minute. Sequencing reaction products were spun through G50-fine Sephadex column plates, prepared on Millipore-multiscreen plates. Products were sequenced and analyzed on the MegaBACE capillary sequencer. All sequences, minus the flanking cysteines, were aligned using the Baylor College of Medicine Clustal W1.8 Global Progressive Alignment (available online) with data presented by Boxshade 3.21 software (available online through the Swiss Institute for Bioinformatics).
2×10^11 plaque-forming units (PFU) of the library was incubated with each aliquot of resin for one hour at 37° C., while rotating. The S-tag agarose was pelleted and the supernatant saved as the agarose counter-selected pool. The cellulose resin was transferred onto a 9:1 ratio of dibutyl phthalate:cyclohexane and the resin centrifuged through the organic phase. The aqueous supernatant was saved as the cellulose counter-selected pool. Each counter selected pool was then added to tag-xPSM agarose or cellulose resin, respectively, and incubated for one hour at 37° C., while rotating (see FIG. 2). The Tag-xPSM agarose was pelleted, washed, and saved for phage isolation. […]

T1 sequence (Q04609 44-750 limits assumed): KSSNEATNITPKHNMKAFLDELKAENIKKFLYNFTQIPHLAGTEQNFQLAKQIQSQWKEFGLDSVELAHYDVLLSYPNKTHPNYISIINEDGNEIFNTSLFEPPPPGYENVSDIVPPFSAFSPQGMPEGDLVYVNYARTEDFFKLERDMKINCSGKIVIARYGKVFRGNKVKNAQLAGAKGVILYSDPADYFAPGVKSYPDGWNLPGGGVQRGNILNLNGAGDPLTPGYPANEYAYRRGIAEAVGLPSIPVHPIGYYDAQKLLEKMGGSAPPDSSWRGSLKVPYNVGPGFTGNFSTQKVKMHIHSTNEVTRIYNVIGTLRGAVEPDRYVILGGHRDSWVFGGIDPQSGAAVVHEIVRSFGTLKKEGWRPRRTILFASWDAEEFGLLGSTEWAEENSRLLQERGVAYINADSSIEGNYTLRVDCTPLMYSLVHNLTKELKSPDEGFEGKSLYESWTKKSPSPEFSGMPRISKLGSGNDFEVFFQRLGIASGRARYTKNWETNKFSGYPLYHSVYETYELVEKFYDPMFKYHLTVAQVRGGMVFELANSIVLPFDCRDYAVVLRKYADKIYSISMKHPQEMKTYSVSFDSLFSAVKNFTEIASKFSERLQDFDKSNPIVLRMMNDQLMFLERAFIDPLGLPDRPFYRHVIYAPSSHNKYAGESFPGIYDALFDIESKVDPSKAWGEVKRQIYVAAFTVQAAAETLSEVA

| Number of times sequence was found, Round 3 (Agarose) | Number of times sequence was found, Round 4 (Agarose) | Number of times sequence was found, Round 5 (Agarose) | Number of times sequence was found, Round 3 (Cellulose) | Number of times sequence was found, Round 4 (Cellulose) | Number of times sequence was found, Round 5 (Cellulose) | Sequence |
| --- | --- | --- | --- | --- | --- | --- |
| 1 | 0/0 | 0/0 | 0 | 0/0 | 0/0 | CFPQSSDRC [SEQ ID NO:24] |
| 1 | 0/0 | 0/0 | 0 | 0/0 | 0/0 | CQFRHSAQC [SEQ ID NO:23] |
| 0/0 | 0 | 0/0 | 0/0 | 1 | 0/0 | CHKFQSKMC [SEQ ID NO:17] |
| 1 | 0/0 | 0/0 | 0 | 0/0 | 0/0 | CHTTTDVYC [SEQ ID NO:25] |
| 0/0 | 0/0 | 0 | 0/0 | 0/0 | 1 | CSHNDTRHC [SEQ ID NO:4] |
| 0 | 0/0 | 0/0 | 1 | 0/0 | 0/0 | CTSNNSAIC [SEQ ID NO:27] |
| 0 | 0/0 | 0/0 | 1 | 0/0 | 0/0 | CLSSNSSLC [SEQ ID NO:28] |
| 0/0 | 0/0 | 0 | 0/0 | 0/0 | 1 | CSSHSTVHC [SEQ ID NO:7] |
| 0/0 | 0 | 0/0 | 0/0 | 1 | 0/0 | CDAVRYPVC [SEQ ID NO:20] |
| 0/0 | 0 | 0/0 | 0/0 | 1 | 0/0 | CTPLSPRYC [SEQ ID NO:12] |
| 0/0 | 0 | 0/0 | 0/0 | 1 | 0/0 | CKPTNQHKC [SEQ ID NO:19] |
| 0/0 | 0/0 | 0 | 0/0 | 0/0 | 1 | CHTKHASHC [SEQ ID NO:6] |
| 0/0 | 0/0 | 0 | 0/0 | 0/0 | 1 | CPSVNTKQC [SEQ ID NO:9] |
| 0/0 | 0 | 0/0 | 0/0 | 1 | 0/0 | CLKSHSHQC [SEQ ID NO:15] |
| 1 | 0/0 | 0/0 | 0 | 0/0 | 0/0 | CTNSNMHHC [SEQ ID NO:22] |
| 0/0 | 0/0 | 0 | 0/0 | 0/0 | 1 | CSTRAPHLC [SEQ ID NO:5] |
| 0/0 | 0 | 0/0 | 0/0 | 1 | 0/0 | CHTSLKTHC [SEQ ID NO:14] |
| 0/0 | 0/0 | 0 | 0/0 | 0/0 | 1 | CKPSMMSYC [SEQ ID NO:8] |
| 0/0 | 0 | 0/0 | 0/0 | 1 | 0/0 | CGLPTRTAC [SEQ ID NO:16] |
| 0/0 | 1 | 0/0 | 0/0 | 0 | 0/0 | CAPNKYKHC [SEQ ID NO:11] |
| 0/0 | 0 | 0/0 | 0/0 | 1 | 0/0 | CLSTTISYC [SEQ ID NO:21] |
| 0/0 | 0 | 0/0 | 0/0 | 1 | 0/0 | CNKSSLGTC [SEQ ID NO:13] |
| 0 | 3/3 | 0 | 1 | 3/3 | 3 | CTITSKRTC [SEQ ID NO:2] |
| 0/0 | 0 | 0/0 | 0/0 | 1 | 0/0 | CKHSVSPSC [SEQ ID NO:18] |
| 0/0 | 0/0 | 0 | 0/0 | 0/0 | 1 | CQTPYDLRC [SEQ ID NO:10] |
